According to publication PMC8534903:

Test system: His-Mwt (matrix protein M) (Human respiratory syncytial virus (A2?))
Experiment: EMSA
Conditions: 10 mM HEPES (pH not stated), 0.25 mM DTT, 50 mM KCl, 10 uL, 15 min at room temperature; 0.8% agarose gel, 40 V, 8 h, 4 C

## control luciferase RNA (T7 transcript)
  K half: 2100 nM
